T1: human FcγRIIb extracellular domain, His-tagged (human, UniProt P31994 43-217)
T1 construct: also called FcgRIIb (human); not shown: C-terminal His-tag
T1 sequence: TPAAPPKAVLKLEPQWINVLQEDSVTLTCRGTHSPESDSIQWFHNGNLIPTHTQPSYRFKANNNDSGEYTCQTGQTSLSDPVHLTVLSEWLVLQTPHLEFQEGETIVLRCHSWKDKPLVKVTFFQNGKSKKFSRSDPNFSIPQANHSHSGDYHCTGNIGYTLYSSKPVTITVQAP

T2: cynomolgus monkey FcγRIIa1 extracellular domain with C-terminal His-tag (cynomolgus monkey)
T2 construct: also called cyno FcgRIIa1; cynoFcγRIIa1; not shown: His-tag added to C-terminus
T2 chain: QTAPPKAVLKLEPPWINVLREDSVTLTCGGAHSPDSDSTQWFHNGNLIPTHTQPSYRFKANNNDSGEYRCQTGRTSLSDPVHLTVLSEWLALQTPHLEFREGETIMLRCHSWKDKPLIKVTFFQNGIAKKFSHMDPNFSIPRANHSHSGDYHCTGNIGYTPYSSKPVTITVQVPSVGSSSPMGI

T3: human FcγRIIb extracellular domain with C-terminal His-tag (human, UniProt P31994 43-217)
T3 construct: also called human FcgRIIb; not shown: His-tag added to C-terminus
T3 sequence: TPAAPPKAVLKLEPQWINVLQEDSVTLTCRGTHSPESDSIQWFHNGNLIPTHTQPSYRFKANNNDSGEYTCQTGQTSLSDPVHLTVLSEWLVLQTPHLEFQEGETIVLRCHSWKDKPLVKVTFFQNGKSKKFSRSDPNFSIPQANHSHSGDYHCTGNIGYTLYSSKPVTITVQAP

T4: cynomolgus monkey FcγRIIa3 extracellular domain with C-terminal His-tag (cynomolgus monkey)
T4 construct: also called cyno FcgRIIa3; cynoFcγRIIa3; not shown: His-tag added to C-terminus
T4 chain: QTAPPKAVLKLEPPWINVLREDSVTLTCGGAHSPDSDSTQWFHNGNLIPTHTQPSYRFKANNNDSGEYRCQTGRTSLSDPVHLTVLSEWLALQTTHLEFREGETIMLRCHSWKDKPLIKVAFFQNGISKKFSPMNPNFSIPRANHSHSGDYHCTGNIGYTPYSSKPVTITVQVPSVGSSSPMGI

T5: cynomolgus monkey FcγRIIb extracellular domain with C-terminal His-tag (cynomolgus monkey)
T5 construct: also called cyno FcgRIIb; cynoFcγRIIb; not shown: His-tag added to C-terminus
T5 chain: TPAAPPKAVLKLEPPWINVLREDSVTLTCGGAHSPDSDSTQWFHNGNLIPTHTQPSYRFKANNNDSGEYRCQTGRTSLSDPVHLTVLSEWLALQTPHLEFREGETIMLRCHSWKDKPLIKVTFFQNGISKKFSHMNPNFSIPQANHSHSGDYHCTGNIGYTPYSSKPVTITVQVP


How the values were obtained:
[1] = target: T1, human FcγRIIb extracellular domain, …; test: SPR Biacore, KD(SG1)/KD(variant)
Procedure: The kinetic analysis of interactions between these antibodies and FcγR was carried out using BIACORE® T200 or BIACORE® 4000 (GE Healthcare). HBS-EP+ (GE Healthcare) was used as the running buffer, and the measurement temperature was set to 25° C. […] After the measurement, the antibody captured on the chip was washed off by allowing reaction with 10 mM glycine-HCl, pH1.5 and 25 mM NaOH so that the chip was regenerated and used repeatedly. The sensorgrams obtained as measurement results were analyzed by the 1:1 Langmuir binding model using the BIACORE® Evaluation Software to calculate the binding rate constant ka (L/mol/s) and dissociation rate constant kd (1/s), and the dissociation constant KD (mol/L) was calculated from these values. […] Regarding such interactions, KD values were calculated using the following 1:1 binding model described in BIACORE® T100 Software Handbook BR1006-48 Edition AE.

[2] = target: T2, cynomolgus monkey FcγRIIa1 …; test: SPR Biacore, antibody captured, FcgR analyte
[3] = target: T6, cynomolgus monkey FcγRIIIaS extracellular domain with C-terminal His-tag (cynomolgus monkey, UniProt A3RFZ7 21-206 (rhesus entry)); test: SPR Biacore, antibody captured, FcgR analyte
T6 construct: also called cyno FcgRIIIaS; cynoFcγRIIIaS; not shown: His-tag added to C-terminus

[4] = target: T3, human FcγRIIb extracellular domain with …; test: SPR Biacore, antibody captured, FcgR analyte
[5] = target: T4, cynomolgus monkey FcγRIIa3 …; test: SPR Biacore, antibody captured, FcgR analyte
[6] = target: T5, cynomolgus monkey FcγRIIb extracellular …; test: SPR Biacore, antibody captured, FcgR analyte

KD fold (SG1 = 1) [1] [fold] | KD fold (SG1 = 1) [2] [fold] | KD fold (SG1 = 1) [3] [fold] | Kd [2] [µM] | Kd [3] [µM] | KD fold (SG1 = 1) [4] [fold] | Kd [5] [µM] | Kd [4] [µM] | Kd [6] [µM] | Binder
1.5 | – | – | – | – | – | – | – | – | M103205H795-MY041/M103202L889-SK1 (antibody, human IgG1, kappa, name in EU numbering, Substitution introduced into M103205H795-SG1; EU numbering) heavy: not shown light: DIVMTQSPATLSLSPGERATLSCTSSQSVYHANWLSWFQQKPGQPPKLLIYWASTLAYGVPSRFSGSGSGTDFTLTISSLQPEDAATYYCAGGYGGGRYAFGQGTKVEIKRTVAAPSVFIFPPSDEQLKSGTASVVCLLNNFYPREAKVQWKVDNALQSGNSQESVTEQDSKDSTYSLSSTLTLSKADYEKHKVYACEVTHQGLSSPVTKSFNRGEC
– | 3.7 | 0.09 | – | – | – | – | – | – | M103205H795-MY202/M103202L889-SK1 (antibody, human IgG1, kappa, name in EU numbering, substitutions in EU numbering, introduced into M103205H795-SG1) heavy: QVTLKESGPVLVKPTETLTLTCTVSGIDLSHDDISWVRQAPGKGLEWVGIISYAGSTYYASWAKGRLTISKDTSKNQVVLTMTNMDPVDTATYYCARGVPAYSHGGDLWGQGTLVTVSSASTKGPSVFPLAPSSKSTSGGTAALGCLVKDYFPEPVTVSWNSGALTSGVHTFPAVLQSSGLYSLSSVVTVPSSSLGTQTYICNVNHKPSNTKVDKKVEPKSCDKTHTCPPCPAPELLNGPVVFLFPPKPKDTLMISRTPEVTCVVVDVSDEDPEVKFNWYVDGVEVHNAKTKPREEQYNSTYRVVSVLTVLHQDWLNGKEYKCKVSNKALPKPIEKTISKAKGQPREPQVYTLPPSREEMTKNQVSLTCLVKGFYPSDIAVEWESNGQPENNYKTTPPVLDSDGSFFLYSKLTVDKSRWQQGNVFSCSVMHEALHNHYTQKSLSLSP light: DIVMTQSPATLSLSPGERATLSCTSSQSVYHANWLSWFQQKPGQPPKLLIYWASTLAYGVPSRFSGSGSGTDFTLTISSLQPEDAATYYCAGGYGGGRYAFGQGTKVEIKRTVAAPSVFIFPPSDEQLKSGTASVVCLLNNFYPREAKVQWKVDNALQSGNSQESVTEQDSKDSTYSLSSTLTLSKADYEKHKVYACEVTHQGLSSPVTKSFNRGEC
– | – | 0.1 | 23 | 3.5 | – | – | – | – | M103205H795-MY169/M103202L889-SK1 (antibody, human IgG1, kappa, name in EU numbering, EU numbering) heavy: QVTLKESGPVLVKPTETLTLTCTVSGIDLSHDDISWVRQAPGKGLEWVGIISYAGSTYYASWAKGRLTISKDTSKNQVVLTMTNMDPVDTATYYCARGVPAYSHGGDLWGQGTLVTVSSASTKGPSVFPLAPSSKSTSGGTAALGCLVKDYFPEPVTVSWNSGALTSGVHTFPAVLQSSGLYSLSSVVTVPSSSLGTQTYICNVNHKPSNTKVDKKVEPKSCDKTHTCPPCPAPELLNGPSVFLFPPKPKDTLMISRTPEVTCVVVDVSEEDPEVKFNWYVDGVEVHNAKTKPREEQYNSTYRVVSVLTVLHQDWLNGKEYKCKVSNKALPAPIEKTISKAKGQPREPQVYTLPPSREEMTKNQVSLTCLVKGFYPSDIAVEWESNGQPENNYKTTPDVLDSDGSFFLYSKLTVDKSRWQQGNVFSCSVMHEALHNHYTQKSLSLSP light: DIVMTQSPATLSLSPGERATLSCTSSQSVYHANWLSWFQQKPGQPPKLLIYWASTLAYGVPSRFSGSGSGTDFTLTISSLQPEDAATYYCAGGYGGGRYAFGQGTKVEIKRTVAAPSVFIFPPSDEQLKSGTASVVCLLNNFYPREAKVQWKVDNALQSGNSQESVTEQDSKDSTYSLSSTLTLSKADYEKHKVYACEVTHQGLSSPVTKSFNRGEC
– | – | 0.17 | 23 | 7.9 | 2.5 | 1.2 | – | – | M103205H795-MY170/M103202L889-SK1 (antibody, human IgG1, kappa, name in EU numbering, EU numbering) heavy: QVTLKESGPVLVKPTETLTLTCTVSGIDLSHDDISWVRQAPGKGLEWVGIISYAGSTYYASWAKGRLTISKDTSKNQVVLTMTNMDPVDTATYYCARGVPAYSHGGDLWGQGTLVTVSSASTKGPSVFPLAPSSKSTSGGTAALGCLVKDYFPEPVTVSWNSGALTSGVHTFPAVLQSSGLYSLSSVVTVPSSSLGTQTYICNVNHKPSNTKVDKKVEPKSCDKTHTCPPCPAPELLNGPSVFLFPPKPKDTLMISRTPEVTCVVVDVSEEDPEVKFNWYVDGVEVHNAKTKPREEQYNSTYRVVSVLTVLHQDWLNGKEYKCKVSNKALPAPIEKTISKAKGQPREPQVYTLPPSREEMTKNQVSLTCLVKGFYPSDIAVEWESNGQPENNYKTTPEVLDSDGSFFLYSKLTVDKSRWQQGNVFSCSVMHEALHNHYTQKSLSLSP light: DIVMTQSPATLSLSPGERATLSCTSSQSVYHANWLSWFQQKPGQPPKLLIYWASTLAYGVPSRFSGSGSGTDFTLTISSLQPEDAATYYCAGGYGGGRYAFGQGTKVEIKRTVAAPSVFIFPPSDEQLKSGTASVVCLLNNFYPREAKVQWKVDNALQSGNSQESVTEQDSKDSTYSLSSTLTLSKADYEKHKVYACEVTHQGLSSPVTKSFNRGEC
– | 1.7 | 0.17 | – | 3.1 | – | 1.2 | 1.9 | – | M103205H795-MY180/M103202L889-SK1 (antibody, human IgG1, kappa, name in EU numbering, EU numbering) heavy: QVTLKESGPVLVKPTETLTLTCTVSGIDLSHDDISWVRQAPGKGLEWVGIISYAGSTYYASWAKGRLTISKDTSKNQVVLTMTNMDPVDTATYYCARGVPAYSHGGDLWGQGTLVTVSSASTKGPSVFPLAPSSKSTSGGTAALGCLVKDYFPEPVTVSWNSGALTSGVHTFPAVLQSSGLYSLSSVVTVPSSSLGTQTYICNVNHKPSNTKVDKKVEPKSCDKTHTCPPCPAPELLNGPSVFLFPPKPKDTLMISRTPEVTCVVVDVSEEDPEVKFNWYVDGVEVHNAKTKPREEQYNSTYRVVSVLTVLHQDWLNGKEYKCKVSNKALPAPIEKTISKAKGQPREPQVYTLPPSREEMTKNQVSLTCLVKGFYPSDIAVEWESNGQPENNYKTTPSVLDSDGSFFLYSKLTVDKSRWQQGNVFSCSVMHEALHNHYTQKSLSLSP light: DIVMTQSPATLSLSPGERATLSCTSSQSVYHANWLSWFQQKPGQPPKLLIYWASTLAYGVPSRFSGSGSGTDFTLTISSLQPEDAATYYCAGGYGGGRYAFGQGTKVEIKRTVAAPSVFIFPPSDEQLKSGTASVVCLLNNFYPREAKVQWKVDNALQSGNSQESVTEQDSKDSTYSLSSTLTLSKADYEKHKVYACEVTHQGLSSPVTKSFNRGEC
– | 1.5 | 0.12 | – | 3.1 | – | 8 | 1 | 0.73 | M103205H795-MY173/M103202L889-SK1 (antibody, human IgG1, kappa, name in EU numbering, EU numbering) heavy: QVTLKESGPVLVKPTETLTLTCTVSGIDLSHDDISWVRQAPGKGLEWVGIISYAGSTYYASWAKGRLTISKDTSKNQVVLTMTNMDPVDTATYYCARGVPAYSHGGDLWGQGTLVTVSSASTKGPSVFPLAPSSKSTSGGTAALGCLVKDYFPEPVTVSWNSGALTSGVHTFPAVLQSSGLYSLSSVVTVPSSSLGTQTYICNVNHKPSNTKVDKKVEPKSCDKTHTCPPCPAPELLNGPSVFLFPPKPKDTLMISRTPEVTCVVVDVSEEDPEVKFNWYVDGVEVHNAKTKPREEQYNSTYRVVSVLTVLHQDWLNGKEYKCKVSNKALPAPIEKTISKAKGQPREPQVYTLPPSREEMTKNQVSLTCLVKGFYPSDIAVEWESNGQPENNYKTTPHVLDSDGSFFLYSKLTVDKSRWQQGNVFSCSVMHEALHNHYTQKSLSLSP light: DIVMTQSPATLSLSPGERATLSCTSSQSVYHANWLSWFQQKPGQPPKLLIYWASTLAYGVPSRFSGSGSGTDFTLTISSLQPEDAATYYCAGGYGGGRYAFGQGTKVEIKRTVAAPSVFIFPPSDEQLKSGTASVVCLLNNFYPREAKVQWKVDNALQSGNSQESVTEQDSKDSTYSLSSTLTLSKADYEKHKVYACEVTHQGLSSPVTKSFNRGEC
